Measured values: US8759300 (RESEARCH FOUNDATION FOR THE STATE UNIVERSITY OF NEW YORK, dated 2014)

B1: peptide 3 NGQTPIQRTIKPDVRSYTITGLQPGT (peptide)
peptide: NGQTPIQRTIKPDVRSYTITGLQPGT
notes: also called P3; FN1852-877 (so in the source)
B2: peptide 1 (FN634-658) QPSHISKYILRWRPKNSVGRWKEAT (peptide)
peptide: QPSHISKYILRWRPKNSVGRWKEAT
notes: A Cys-tagged form was used in the FN-null cell assay; also called P1
B3: EGF (ligand, UniProt P01133 971-1023, looked up)
chain: NSDSECPLSHDGYCLHDGVCMYIEALDKYACNCVVGYIGERCQYRDLKWWELR
B4: IIICS, variably-spliced domain of fibronectin (other, human)
chain: MGSDELPQLVTLPHPNLHGPEILDVPSTVQKTPFVTHPGYDTGNGIQLPGTSGQQPSVGQQMIFEEHGFRRTTPPTTATPIRHRPRPYPPNVGEEIQIGHIPREDVDYHLYPHGPGLNPNASTTSHHHHHHC
notes: domain: IIICS; The IIICS construct is not described separately

Key:
[1] = biological target: T1, basic fibroblast growth factor (bFGF, FGF-2) (human, UniProt P09038 143-288, limits assumed); test: peptide binding to the GF
T1 sequence (P09038 143-288 limits assumed): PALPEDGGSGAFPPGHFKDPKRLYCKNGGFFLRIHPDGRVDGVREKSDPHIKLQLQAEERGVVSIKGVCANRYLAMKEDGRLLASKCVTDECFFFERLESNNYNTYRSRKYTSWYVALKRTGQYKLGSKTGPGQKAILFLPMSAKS

TGF-α = TGF-α (UniProt P01135 40-89); test: equilibrium and kinetic binding
Chain of TGF-α (P01135 40-89 limits assumed): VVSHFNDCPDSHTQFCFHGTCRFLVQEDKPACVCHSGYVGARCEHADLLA

FGF-1 = FGF-1 (UniProt P05230 16-155, limits assumed); test: equilibrium and kinetic binding
Chain of FGF-1 (P05230 16-155 limits assumed): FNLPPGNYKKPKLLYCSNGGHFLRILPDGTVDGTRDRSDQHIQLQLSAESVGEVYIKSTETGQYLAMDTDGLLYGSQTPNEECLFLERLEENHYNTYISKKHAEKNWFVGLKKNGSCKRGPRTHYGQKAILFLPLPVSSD

EGF = biological target: B3; test: equilibrium and kinetic binding
[2] = biological target: T2, intact human plasma fibronectin (FN) (human, UniProt P02751 32-2477); test: equilibrium binding to FN adsorbed to a surface or coupled to agarose beads
T2 construct: Adsorbed to plastic or coupled to agarose beads in the assays; The background calls plasma FN a disulfide-linked dimer; also called intact FN
T2 sequence (P02751 other isoform, or with tags, fused parts or gaps limits assumed): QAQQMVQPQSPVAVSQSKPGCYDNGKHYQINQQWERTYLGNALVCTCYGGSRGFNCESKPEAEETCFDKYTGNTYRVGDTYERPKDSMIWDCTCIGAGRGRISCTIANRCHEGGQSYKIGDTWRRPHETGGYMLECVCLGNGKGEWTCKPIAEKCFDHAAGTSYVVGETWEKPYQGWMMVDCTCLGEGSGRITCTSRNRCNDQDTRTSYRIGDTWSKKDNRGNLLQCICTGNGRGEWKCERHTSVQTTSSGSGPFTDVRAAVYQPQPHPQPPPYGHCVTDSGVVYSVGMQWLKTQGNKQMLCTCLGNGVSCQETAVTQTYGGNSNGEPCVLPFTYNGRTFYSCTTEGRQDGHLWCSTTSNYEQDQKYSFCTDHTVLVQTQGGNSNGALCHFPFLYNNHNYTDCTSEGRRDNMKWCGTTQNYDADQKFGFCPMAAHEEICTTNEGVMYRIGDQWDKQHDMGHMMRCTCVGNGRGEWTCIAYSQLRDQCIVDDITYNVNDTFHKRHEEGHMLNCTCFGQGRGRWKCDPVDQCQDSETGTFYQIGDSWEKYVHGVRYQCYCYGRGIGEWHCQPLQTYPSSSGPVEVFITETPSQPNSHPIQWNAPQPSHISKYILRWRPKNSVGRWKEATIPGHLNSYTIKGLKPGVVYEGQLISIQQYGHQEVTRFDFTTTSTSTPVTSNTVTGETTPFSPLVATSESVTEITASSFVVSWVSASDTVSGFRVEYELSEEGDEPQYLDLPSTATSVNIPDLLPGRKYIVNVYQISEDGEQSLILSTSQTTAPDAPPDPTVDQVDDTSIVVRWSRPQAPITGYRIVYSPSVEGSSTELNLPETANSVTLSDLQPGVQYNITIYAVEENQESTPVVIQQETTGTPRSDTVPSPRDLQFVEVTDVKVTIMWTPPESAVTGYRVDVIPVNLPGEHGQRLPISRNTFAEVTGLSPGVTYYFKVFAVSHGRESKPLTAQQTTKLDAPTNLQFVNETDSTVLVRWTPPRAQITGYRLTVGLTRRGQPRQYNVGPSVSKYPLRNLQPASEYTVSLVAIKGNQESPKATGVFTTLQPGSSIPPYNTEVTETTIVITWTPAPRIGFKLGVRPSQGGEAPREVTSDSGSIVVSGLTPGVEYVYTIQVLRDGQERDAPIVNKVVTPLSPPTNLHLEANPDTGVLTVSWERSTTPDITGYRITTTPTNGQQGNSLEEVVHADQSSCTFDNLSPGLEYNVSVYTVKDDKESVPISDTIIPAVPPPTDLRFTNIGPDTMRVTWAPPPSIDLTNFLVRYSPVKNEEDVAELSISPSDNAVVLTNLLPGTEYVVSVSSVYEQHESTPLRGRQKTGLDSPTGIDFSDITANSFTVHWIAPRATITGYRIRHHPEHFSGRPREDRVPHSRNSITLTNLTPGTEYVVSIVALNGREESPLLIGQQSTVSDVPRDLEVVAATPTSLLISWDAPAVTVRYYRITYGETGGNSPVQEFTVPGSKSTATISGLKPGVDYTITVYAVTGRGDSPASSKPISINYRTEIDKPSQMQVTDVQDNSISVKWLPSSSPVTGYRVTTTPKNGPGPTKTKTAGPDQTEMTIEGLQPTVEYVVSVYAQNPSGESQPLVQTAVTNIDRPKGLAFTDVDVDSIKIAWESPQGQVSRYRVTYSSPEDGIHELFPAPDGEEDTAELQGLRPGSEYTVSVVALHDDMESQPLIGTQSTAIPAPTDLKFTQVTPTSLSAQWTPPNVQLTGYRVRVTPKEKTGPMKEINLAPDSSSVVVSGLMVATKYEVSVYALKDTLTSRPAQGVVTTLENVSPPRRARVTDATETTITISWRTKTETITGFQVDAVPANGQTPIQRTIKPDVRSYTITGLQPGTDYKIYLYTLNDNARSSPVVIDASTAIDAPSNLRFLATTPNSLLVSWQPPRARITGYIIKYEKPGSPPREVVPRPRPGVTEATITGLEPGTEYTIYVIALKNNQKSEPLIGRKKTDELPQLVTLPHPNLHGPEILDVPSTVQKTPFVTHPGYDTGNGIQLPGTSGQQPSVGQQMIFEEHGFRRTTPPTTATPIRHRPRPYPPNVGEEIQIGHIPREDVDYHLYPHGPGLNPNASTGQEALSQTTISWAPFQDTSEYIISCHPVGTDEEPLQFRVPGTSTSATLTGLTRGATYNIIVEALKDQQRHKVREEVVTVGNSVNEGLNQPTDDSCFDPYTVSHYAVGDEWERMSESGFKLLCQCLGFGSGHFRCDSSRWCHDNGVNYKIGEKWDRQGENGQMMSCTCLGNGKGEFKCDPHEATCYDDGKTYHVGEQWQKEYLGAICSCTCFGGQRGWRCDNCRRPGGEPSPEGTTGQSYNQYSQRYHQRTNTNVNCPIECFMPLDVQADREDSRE

[3] = biological target: T3, FNIII12-V15 (HV), composite heparinII-binding and variably-spliced IIICS domains of fibronectin (human, UniProt P02751 1812-2288); test: plasmon resonance modulation
T3 construct: domain: FNIII12-V15; Recombinant, from E. coli; Some constructs carry GST at the C-terminus

FNIII3-6 = biological target: T4, FNIII3-6 (human, UniProt P02751 813-1175, limits assumed); test: equilibrium and kinetic binding
T4 construct: domain: FNIII3-6; Recombinant; also called FNII3-6 [sic]

FNIII1-7 = biological target: T5, FNIII1-7 (human, UniProt P02751 610-1266, limits assumed); test: equilibrium and kinetic binding
T5 construct: domain: FNIII1-7; This construct is not described separately
T5 sequence (P02751 other isoform, or with tags, fused parts or gaps limits assumed): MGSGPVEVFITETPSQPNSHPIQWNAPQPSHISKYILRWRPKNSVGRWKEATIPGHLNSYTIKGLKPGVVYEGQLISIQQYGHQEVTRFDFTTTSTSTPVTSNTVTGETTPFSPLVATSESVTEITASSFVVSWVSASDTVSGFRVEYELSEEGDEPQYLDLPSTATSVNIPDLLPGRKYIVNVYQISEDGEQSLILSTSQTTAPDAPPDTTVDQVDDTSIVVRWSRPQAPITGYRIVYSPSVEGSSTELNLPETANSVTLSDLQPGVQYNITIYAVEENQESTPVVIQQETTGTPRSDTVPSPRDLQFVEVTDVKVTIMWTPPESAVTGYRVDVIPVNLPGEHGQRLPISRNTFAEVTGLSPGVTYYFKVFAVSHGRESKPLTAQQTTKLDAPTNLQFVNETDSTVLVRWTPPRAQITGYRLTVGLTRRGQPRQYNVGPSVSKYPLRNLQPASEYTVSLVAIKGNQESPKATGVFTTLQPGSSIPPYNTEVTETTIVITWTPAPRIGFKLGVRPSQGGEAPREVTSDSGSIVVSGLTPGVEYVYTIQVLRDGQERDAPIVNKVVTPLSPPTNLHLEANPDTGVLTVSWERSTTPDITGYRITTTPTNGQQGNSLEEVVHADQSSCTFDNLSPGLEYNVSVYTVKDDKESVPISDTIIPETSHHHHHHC

[4] = biological target: T6, FN70, the 70 kDa amino terminus of fibronectin (UniProt P02751 32-608, limits assumed); test: equilibrium and kinetic binding
T6 construct: domain: FN70 (70 kDa amino terminus); also called amino-terminal end of FN

[5] = biological target: T7, FNIII8-11 (C), classic cell-binding domain of fibronectin containing RGD (human, UniProt P02751 1358-1721); test: equilibrium and kinetic binding
T7 construct: domain: FNIII8-11; Recombinant

FNIII12-14 = biological target: T8, FNIII12-14 (human, UniProt P02751 1812-2082); test: binding to FN functional domains
T8 construct: domain: FNIII12-14; Recombinant
T8 sequence (P02751 other isoform, or with tags, fused parts or gaps limits assumed): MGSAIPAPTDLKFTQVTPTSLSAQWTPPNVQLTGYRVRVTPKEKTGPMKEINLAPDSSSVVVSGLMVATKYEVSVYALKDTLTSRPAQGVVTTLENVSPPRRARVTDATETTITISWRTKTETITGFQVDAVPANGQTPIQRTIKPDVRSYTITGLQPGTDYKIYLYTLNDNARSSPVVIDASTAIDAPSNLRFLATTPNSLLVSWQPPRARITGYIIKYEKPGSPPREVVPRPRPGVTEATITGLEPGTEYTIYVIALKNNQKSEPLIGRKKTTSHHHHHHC

FNIII1-11 = biological target: T9, FNIII1-11 (human, UniProt P02751-8 610-1630); test: binding to FN functional domains
T9 construct: domain: FNIII1-11; Recombinant
T9 sequence (P02751 other isoform, or with tags, fused parts or gaps limits assumed): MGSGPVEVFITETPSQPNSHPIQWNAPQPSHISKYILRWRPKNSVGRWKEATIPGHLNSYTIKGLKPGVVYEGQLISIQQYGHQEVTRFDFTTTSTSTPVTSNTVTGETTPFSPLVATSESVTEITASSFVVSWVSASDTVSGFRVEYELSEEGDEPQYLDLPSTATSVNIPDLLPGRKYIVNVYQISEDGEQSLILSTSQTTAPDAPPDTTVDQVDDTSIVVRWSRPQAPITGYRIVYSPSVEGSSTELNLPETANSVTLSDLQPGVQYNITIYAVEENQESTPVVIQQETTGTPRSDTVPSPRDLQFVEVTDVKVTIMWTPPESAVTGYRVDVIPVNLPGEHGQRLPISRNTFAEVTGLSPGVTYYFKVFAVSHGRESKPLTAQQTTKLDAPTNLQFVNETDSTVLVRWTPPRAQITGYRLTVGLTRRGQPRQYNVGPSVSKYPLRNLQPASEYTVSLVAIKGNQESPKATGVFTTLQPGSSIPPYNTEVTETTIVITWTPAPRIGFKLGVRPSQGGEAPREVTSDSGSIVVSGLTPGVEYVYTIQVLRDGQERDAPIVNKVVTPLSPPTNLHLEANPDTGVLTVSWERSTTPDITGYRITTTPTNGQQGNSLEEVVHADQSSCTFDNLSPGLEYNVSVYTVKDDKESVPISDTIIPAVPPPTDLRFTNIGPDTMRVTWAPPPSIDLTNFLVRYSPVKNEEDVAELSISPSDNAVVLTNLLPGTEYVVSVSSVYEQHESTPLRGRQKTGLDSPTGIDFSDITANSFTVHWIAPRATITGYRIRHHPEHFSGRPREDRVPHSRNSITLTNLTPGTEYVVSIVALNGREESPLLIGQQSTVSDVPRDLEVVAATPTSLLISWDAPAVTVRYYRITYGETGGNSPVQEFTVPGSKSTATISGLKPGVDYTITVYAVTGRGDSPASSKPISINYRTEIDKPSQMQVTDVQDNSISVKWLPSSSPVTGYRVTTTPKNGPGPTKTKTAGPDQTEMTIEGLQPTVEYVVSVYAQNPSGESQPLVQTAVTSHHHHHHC

FNIII1 = biological target: T10, FNIII1 (human, UniProt P02751 610-702, limits assumed); test: binding to FN functional domains
T10 construct: domain: FNIII1; Recombinant; also called FNIIII [sic]
T10 sequence (P02751 other isoform, or with tags, fused parts or gaps limits assumed): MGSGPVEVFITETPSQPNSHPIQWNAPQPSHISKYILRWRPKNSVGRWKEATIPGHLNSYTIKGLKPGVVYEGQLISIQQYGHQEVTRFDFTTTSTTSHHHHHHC

FNIII1-2 = biological target: T11, FNIII1-2 (human, UniProt P02751 610-812, limits assumed); test: binding to FN functional domains
T11 construct: domain: FNIII1-2; Recombinant
T11 sequence (P02751 other isoform, or with tags, fused parts or gaps limits assumed): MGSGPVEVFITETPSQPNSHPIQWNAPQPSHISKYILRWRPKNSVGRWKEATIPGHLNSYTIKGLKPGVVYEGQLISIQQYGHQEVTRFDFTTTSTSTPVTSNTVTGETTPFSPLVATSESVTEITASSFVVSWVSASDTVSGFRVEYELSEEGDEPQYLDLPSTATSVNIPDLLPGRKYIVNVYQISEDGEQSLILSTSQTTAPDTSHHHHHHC

[6] = biological target: T12, FNIII12-15 (H), heparinII-binding domain of fibronectin (human, UniProt P02751-10 1631-1987); test: binding to FN functional domains
T12 construct: domain: FNIII12-15; Recombinant

[7] = biological target: B4; test: binding to FN functional domains
FNIII2 = biological target: T13, FNIII2 (human, UniProt P02751 722-812, limits assumed); test: binding to FN functional domains
T13 construct: domain: FNIII2; Recombinant

[8] = biological target: T2, intact human plasma fibronectin (FN); test: competition: I-125 PDGF-BB bound to intact human plasma FN adsorbed on plastic (0.125 µM, blocked with 2% BSA), 25°C, 2 h, with rising peptide; % of binding without peptide, n=3 [right panel]
Description: (§1) Figure 9: FIG. 9. Inhibition of TGF-β1 and PDGF-BB binding to intact human plasma FN with TGF-β1 and PDGF-BB FN-binding peptides, respectively. FN was adsorbed onto tissue culture plastic at a concentration of 0.125 μM and then excess protein-binding sites of the plastic blocked with 2% bovine serum albumin. Growth factor labeled with I^125 was incubated with FN-coated plates at 25° C. for 2 hours in the presence or absence of peptide. Data was calculated as [(GF binding in presence of peptide–background)/(GF binding in absence of peptide-background)]×100. n=3.
(§2) Two of these synthetic peptides (homologous to TGF-β1 and homologous to PDGF-BB) inhibit TGF-β1 and PDGF-BB binding to FN respectively (FIG. 9). Inhibition of TGF-β1 and PDGF-BB binding to intact human plasma FN was determined as follows. FN was adsorbed onto tissue culture plastic at a concentration of 0.125 μM and then excess protein-binding sites of the plastic blocked with 2% bovine serum albumin. Growth factor labeled with I^125 was incubated with FN-coated plates at 25° C. for 2 hours in the presence or absence of peptide. For example, relative binding of TGF-β1 to immobilized FN was determined for increasing concentrations of the synthetic peptide homologous to TGF-β1. […] For example, relative binding of PDGF-BB to immobilized FN was determined for increasing concentrations of the synthetic peptide homologous to PDGF-BB. […]

[9] = biological target: T2, intact human plasma fibronectin (FN); test: competition: I-125 TGF-β1 bound to intact human plasma FN adsorbed on plastic (0.125 µM, blocked with 2% BSA), 25°C, 2 h, with rising peptide; % of binding without peptide, n=3 [left panel]
Description: as §1, §2

[10] = biological target: T1, basic fibroblast growth factor (bFGF, …); test: method not restated in the sentence
[11] = biological target: T1, basic fibroblast growth factor (bFGF, …); test: equilibrium or kinetic binding, not said which

| Binder | binding result [1] | binding result (TGF-α) | binding result (FGF-1) | binding result (EGF) | also measured |
| --- | --- | --- | --- | --- | --- |
| B1 | binds | no binding | no binding | no binding | – |
| B2 | binds | no binding | no binding | no binding | – |
| B3 | – | – | – | – | binding result [2]: no binding; binding result [3]: no binding; binding result (FNIII3-6): no binding; binding result (FNIII1-7): no binding; binding result [4]: no binding; binding result [5]: no binding; binding result (FNIII12-14): no binding; binding result (FNIII1-11): no binding; binding result (FNIII1): no binding; binding result (FNIII1-2): no binding; binding result [6]: no binding; binding result [7]: no binding; binding result (FNIII2): no binding |
| QPSVGQQMIFEEHGFRRTTPPTTAT (also called P4) [peptide 4 (FN2043-2067) QPSVGQQMIFEEHGFRRTTPPTTAT] | binds | no binding | no binding | no binding | – |
| CKTRTEVFEISRRLI [synthetic peptide homologous to PDGF-BB, CKTRTEVFEISRRLI] | – | – | – | – | binding result [8]: binds |
| CCVRQLYIDFRKDLG [synthetic peptide homologous to TGF-β1, CCVRQLYIDFRKDLG] | – | – | – | – | IC50 (read off the curve) [9]: ~8000 nM |
| QLISIQQYGHQEVTRFDFTTTSTST (also called P2) [peptide 2 (FN680-704) QLISIQQYGHQEVTRFDFTTTSTST] | binds | no binding | no binding | no binding | – |
| B4 | – | – | no binding | – | Kd [10]: ~100 nM; Kd [11]: 58 nM |
